Measurements published in the nanobody polyreactivity screen of Harvey et al. (2022).

Assay: yeast display, Sf9 membrane polyspecificity reagent, FACS + sequencing; frameworks hold sequencing errors
Method in brief: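 A synthetic nanobody library was expressed on Saccharomyces cerevisiae BJ5465 by galactose induction for 36–48 hours. The library was stained for 1 hour at 4 °C with 10% biotinylated, detergent-solubilized Sf9 membrane reagent and enriched with streptavidin microbeads before FACS. Low and high (top ~1%) gates were set on anti-HA fluorescence for expression and streptavidin fluorescence for reagent binding, and each polyreactivity label reflects the gate of origin.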

Row | Sequence | polyreactivity (PSR sort gate)
1 | QVQLVESGGRLVQAGGSLRLSCAASGITFYLYAMGWYRQAPGKERELVAAISSSGGSTYYADSVKGRFTISRDNEKNTVYLQMNSLKPEDTAVYYCAAVFYTSVTIYDYWGQGTQVTVSS | high polyreactivity
2 | QVQLVESGGRLVQAGGSLRLSCAASGNIFTVNAMGWYRQAPGKERELVAAISVGDGTTYYADSVKGRFTISRDNAKNTVYLQMNSLKPEDTAVYYCAAEGYTDYEYWGQGTQVTVSS | high polyreactivity
3 | QVQLVESGGRLVQAGGSLRLSCAASGNIFYYYAMGCYTQAHGKERELVAAISADCGRTYYADSVKGRFTISRDTAKNTVYLQMNSLQPEDTAVYYWNVLGRARTQTRYNYWGQGTQVTVSS | high polyreactivity
4 | QVQLVESGGRLVQAGGSLRLSCAASGRIFLNYDMGWYRQAHGKERELVAAITWSTGSTYADSVKGRFTISRDNAKNNVYLKMNSLKPEVTAVYYCAAPWGQTDDRHKGGDYWGQGSQVTVSS | low polyreactivity
5 | QVQLVESGGRLVQAGGSLRLSCAASGRIFSPYAMGRYRPAPGKERELVAAITQSGGITSYADSVKGRFTISRDNAKNTVYLQMISLKPEDTAVYYCNKDVWDGYDWPEFDYWGQGTQVTVSS | low polyreactivity
6 | QVQLVESGGRLVQAGGSLRLSCAASGRILPGNAMGWYRQAPGKEREFVAAISYSGGRTYYADSVKGRFTISRDNAKNNVYLQMNSLKPEDTAVYSCAARSYGSAYYYWGQGTQVTVSS | high polyreactivity
7 | QVQLVESGGRLVQAGGSLRLSCAASGRTFFGYAMGWYRQAPGKEWELVAAISSGGRTYYADSVKGRFTISRDNAQNTVYLQMNSLKPEDTAVYSCAAQYSARYYYWGQGTQVTVSS | high polyreactivity
8 | QVQLVESGGRLVQAGGSLRLSCAASGRTFGPYAIGRYRQAPGKERELVAAITDTGSGTYYADSVKGRFTISRDNAKNTVYLQMNSLKPEDTAVYYCNAVRKYWGQGTQVTVSS | low polyreactivity
9 | QVQLVESGGRLVQAGGSLRLSCAASGRTFGSYAMGWFRQAPGKERELVATIRNSGGISYYADSVKGRFTISRDTAKNTVYLQMNSLKPEDTAVYDCAKLGRYGYDYWGQGTQVTVSS | high polyreactivity
10 | QVQLVESGGRLVQAGGSLRLSCAASGRTFIKYAMGWYRQAPGKERELVAAISRNGGSTNYADSVKGRFTISRDNAKNTVYLQMNSLKPEDTAVYYCAAVGTVSRTVGYNYWGQGTQVTVSS | high polyreactivity
11 | QVQLVESGGRLVQAGGSLRLSCAASGRTFRPYAMGWYRQAPGKERELVAAISSRGSSTYYADSVKGRFTISRDNAKNTVYLQMNSLKPEDTAVYYCAARSYWGGLRYDYWGQGTQVTVSS | high polyreactivity
12 | QVQLVESGGRLVQAGGSLRLSCAASGRTIVIYAMGWYRQAPGKEREFVAAISRSGGSTYYADSVKGRFTISRDNAKNTVYLQMNSLKPEDTAVYYCYTRTPYWFKSDYWGQGTQVTVSS | low polyreactivity
13 | QVQLVESGGRLVQAGGSLRLSCAASGRTSGINAMGWYRQAPGKERELVAAISSGGRTYYADSVKGRFTISRDNAKNTVYLQMNSLKPEDTAVYYCAAVIHWSLYRRMEYWGQGTQVTVSS | high polyreactivity
14 | QVQLVESGGRLVQAGGSLRLSCAASGSIFGWYAMGWYRQAPGKESEFVASISVTAGSTYYADSVKWRFTISRDNAKNTVYLQMNSLKPEDTAVFYCAADDYTADAVQRFYYWGQGTQVTVSS | low polyreactivity
15 | QVQLVESGGRLVQAGGSLRLSCAASGSIFRFNTMGWYRQAPGKERELVAVIRYRSGSTYYADTVKGRFTISRDNAKYTVYLQMNSLKPEDTAVYYCAAKRRSTYDYWGQGTQVTVSS | high polyreactivity
16 | QVQLVESGGRLVQAGGSLRLSCAASGSIFTFYALGWYRQAPGKESELVAAISYRGGSTYYADSVRGRFTISRDNAKNTVYLQMNRLKPEDTAVYFCAAGRFPVFFQGYRMEYWGQGTQVTVSS | low polyreactivity
17 | QVQLVESGGRLVQAGGSLRLSCAASGSNLLWNTMGWYRQAPGKERELVAGITSGGNTYYADSVKGRFTISRDNAKNTVYLKMNSLKPEDTAVYYCSYYYWGQGTQVTVSS | low polyreactivity
18 | QVQLVESGGRLVQAGGSLRLSCAASGSTFAANAMGRYRQDPGKDRELVAGITSSGGSTYYADSVKGRFTISRDNAKNTDYLQLTSLKPEDNAVYYCNKDNARYVRMYDSWGQGTQVTVSS | low polyreactivity
19 | QVQLVESGGRLVQAGGSLRLSCAASGSTFQFNVMGWYRQAPGKERELVAAITSGASTYYADSVKGRFTISRDNAKNTVYLQMNSLEPEDTAVYYCAVDYSFRYDYVQRYYYWGQGTQVTVSS | high polyreactivity
20 | QVQLVESGGRLVQAGGSLRLSCAASGSTFRKYAMGWYIQAPGKERELVASISRGGTTYYADSVKGRFTISRDNAKNTVYLQMNSLKPEDTAVYYCNKASYRWYWGYLDYYYWGQGTQVTVSS | high polyreactivity
21 | QVQLVESGGRLVQAGGSLRLSCAASGSTFTRYVMGWYRQAPGKERELVAVISSSGGSTYYADSVKGRFTISRDNAKNTVYLQMNSLKPEDTAVYYCAARYSAKHYGYGYWGQGTQVTVSS | high polyreactivity
22 | QVQLVESGGRLVQAGGSLRLSCAASGSTIPYYTMGWYRQAPGKERELVAAIRYSGSSTYYADSVKGRFTISRDNAKNTVYLQMNSLKPEDTAVYYCAKTLWRRRGDRRYRVIEMDHWGQGTQVTVSS | low polyreactivity

Row | Sequence | polyreactivity (PSR sort gate)
23 | QVQLVESGGRLVQAGGSLRLSCAASGTFAVYTMGWYRQAPGKERELVAAISSGGSTYYADSVKGRFTISRDNAKNTVYLQMNSLKPEDTAVYYCNKPLSYGYDYWGQGTQVTVSS | high polyreactivity
24 | QVQLVESGGRLVQAGGSLRLSCAASGYTFQRYAMGWYRQAPGKERELVAAISSSGGSTYYADSVKGRFTISRDNAKNTVYLQMNSLKPEDTAVFYCAVRFVSAWSRYDYWGQGTQVTVSS | high polyreactivity
25 | QVQLVESGGRLVQAGGSLRLSCAASVSTFRKYAMGWYRQAPGKEREFVAAITWSTGTTYYADSVKGRFTISRDTAKNTVYLQMNSLKPEDTAVYYCAADSQPPHELYESIEHESWGQGTQVTVSS | low polyreactivity
26 | QVQLVESGGRLVQAGGSLRLSCADSGSIFEYYAMGWYRQAPGKEREFVAAISDNGDSTYYADSVKGRFTISRDNAKNTVYLQMNSLKPEDTEVYYCNKTPVDDPPWCYDSWGQGTQVTVSS | low polyreactivity
27 | QVQLVESGGRLVQAGGSLRLSCAPSGFIFRFNAMGWYRQPPGKVSELVARIDWSGGSTYYADSVKGRFTISRENAKYTVYFQMNSLKPEDTAVYYCAAERYFEYSECDYWGQGTQVTVSS | low polyreactivity
28 | QVQLVESGGRLVQAGGSLRLSGAASGFTFGRNAKGWYRPAPGKERELVASIDWSGGSTYYADSVKGRFTISRDNAKNTFFLQMNSLKPEETAVYYCAVGPNSVGNRSYGFDYWGQGTQVTVSS | low polyreactivity
29 | QVQLVESGGRLVQAGGSLRLSGADSGSIFSSYAMGWNRPAPGKERELVAAISSSGDSTYADSEKGRFTISRDNAKNSVDLQMNSLKPEDTAVYYCAVGGAGSDDYWGQGTQVTVSS | low polyreactivity
30 | QVQLVESGGRLVQAGGSLRLSSAASGRTFRTYALGWYRQAPGTEREFVAAISRRSGITYYADSVKGRFTISRDNAKNTVYLQMNSLKPEDTAVYYCAATGYTGYSRYYYWGQGTQVTVSS | high polyreactivity
31 | QVQLVESGGRLVQAGGSLRLTCAASGNIFANNAMGWYRQAPGTERELVAAISQSGGNTYYEDSVKGRFTISRDNAKNTVYLQMNSLKPEDTAVYYCNAKTYGYNYDSWGQGTQVTVSS | low polyreactivity
32 | QVQLVESGGRLVQAGGSLRLTCASSGRIFRYYAMGWYRQAPGKERQLVAAISSSGGSTYYADSVKGRFTISRDNAKNTVYLQMNSLKPEDTAVYYCAARYHIDTLFYGSRYDYWGQGTQVTVSS | high polyreactivity
33 | QVQLVESGGRLVQAGGTLRLSCAASGFIFTPYAMGWYRQAPGKERELVAAITWRGARTYYADSVKGRFTISRDNANNTVYLQMNSLKPEDTAVYYCATTFTGYNKEFGYWGQGTQVTVSS | high polyreactivity
34 | QVQLVESGGRLVQAGGTLRLSCAASGRNVGLYAMGWSRQAPGKERELVAAISSTGRTTYADSVKGRFTISRDNAKNNVYLQMNSLIPEVTAVYYCKADARSVCWYYYACLFDYWGQGTQGTVSS | low polyreactivity
35 | QVQLVESGGRLVQAGGTLRLSCAASGRTLSNYALGWSRQAPGKERELVAAISSSGSTNYADSVKGRFTISRDNAKNTVYLQMNSLKPEDSAVYYCAAESWFLRWYRYDYWGQGTQVTVSS | low polyreactivity
36 | QVQLVESGGRLVQEGGSLRLRCAASGSIFSGYAMGWSRQAPGKERELVAVITRGGNTNYADSVKGRFTISRDNAKNTVSLQMNSLTPEDTAVYYCAVDLRKSYRHKFDFNYWGQGTQVTVSS | low polyreactivity
37 | QVQLVESGGRLVQEGRSLRLSCAASGSIFSRYAMGWYRQAPRKERELVAAITWSGGSTYYADSVKGRFTISRDNAKNNVYLQMNSLKPDDTAVYYCAAVGYAPYNHRYDSWGQGTQVTVSS | low polyreactivity
38 | QVQLVESGGRLVQERGSLRLSCAASGFIFGRYAMGWYIQAPGKERELVAAITQSGGSTYYADSVKGRFTISRDNAKNTVYVQMNCLNPEDTAVYYCIAPIAYWRVHYKYGYWGQGTQVTVSS | low polyreactivity
39 | QVQLVESGGSLVQAGGSLRLSCAASGRTFGYNGMGWYRQAPGKERELVAAITNDGGNTNYADSVKGRFTISRDNAKNTVYLQMNSLKPEDTAVYYCNADRTQDRNPYTYATFDYWGQGTQVTVSS | low polyreactivity
40 | QVQLVESGGSLVQAGGSLRLSCAASGSTLYYNAMGWYRQAPGKERELVAAISWSGGSTYYADSVKGRFTISRDNAKNTVYLQMNSLKPEDTSVYYCAADQSTVLDVGSWGQGTQVTVSS | low polyreactivity
41 | QVQLVESGGVLVQAGCSLRLSCAASGSTFYYNAMGWYRQAPRKERELVARISRSGGSTYADSVKGRFTISRDNAKNTVYLQMNSLKPEDTAVYYCYADAYGTPEFTSYAVRYDYWGQGTQVTVSS | low polyreactivity
42 | QVQLVESGGVLVQAGCSLRLSCAAYGFTFASYAMGWYRQAPGKERELVAAISWGTVSTYYADSVKGRFTISRDNAMITVYLQMNSLRREDTAVYFCDAQRYTRLRRHGYWGLGTQVTVSS | high polyreactivity
43 | QVQLVESGGVLVQAGGSLPLSCAASGFTFSRYAMGWYRQAPGKEREFVAGISRSGGSTYYADSVKGRFTNTRDNAMNTVSLQMNSLKPEDTAVYYWAKVYPATEAGDYWGQGTQVTVSS | high polyreactivity
